From the supplement of paper PMC9112550, “Optimization of the antimicrobial peptide Bac7 by deep mutational scanning” (BMC Biology, 2022)

Test system: Escherichia coli TOP10
Test: shrunken log2 fold change of peptide-encoding DNA abundance (4.5 h post-induction vs induction); higher = less antimicrobial activity (less host growth inhibition)
Conditions: time post-induction: 4.5 h; library: site-saturation at positions 5, 18, 19, 20
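Also: peptides expressed intracellularly from a pBAD plasmid library in pooled LB shake-flask culture, induced with 0.3% L-arabinose, DNA abundance read by NGS, three biological replicates, DESeq2 with apeglm shrinkage.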

Sequence | shrunken log2 fold change
RRIRFRPPRLPRPRPRPFCLPRP | -0.467
RRIRMRPPRLPRPRPRPGCTPRP | 0.245
RRIRRRPPRLPRPRPRPQQTPRP | -0.0146
RRIRLRPPRLPRPRPRPPKAPRP | 0.025
RRIRSRPPRLPRPRPRPAIAPRP | -0.00626
RRIRNRPPRLPRPRPRPGNVPRP | -0.107
RRIRTRPPRLPRPRPRPKDVPRP | -0.0302
RRIRSRPPRLPRPRPRPPAWPRP | 0.436
RRIRCRPPRLPRPRPRPHVDPRP | -0.617
RRIRWRPPRLPRPRPRPNHEPRP | -0.197
RRIRIRPPRLPRPRPRPGYIPRP | -0.752
RRIRCRPPRLPRPRPRPQKAPRP | 0.265
RRIRHRPPRLPRPRPRPYTTPRP | -1.14
RRIRTRPPRLPRPRPRPPDDPRP | 0.408
RRIRCRPPRLPRPRPRPYHYPRP | -0.364
RRIRRRPPRLPRPRPRPSWEPRP | 0.1
RRIRQRPPRLPRPRPRPRNGPRP | -0.0342
RRIRDRPPRLPRPRPRPCFGPRP | -0.112
RRIRRRPPRLPRPRPRPPCKPRP | 0.492
RRIRSRPPRLPRPRPRPIKCPRP | -0.0332
RRIRLRPPRLPRPRPRPMFWPRP | 0.145
RRIRYRPPRLPRPRPRPKIIPRP | -1.21
RRIRPRPPRLPRPRPRPVLAPRP | 0.668
RRIRRRPPRLPRPRPRPFEWPRP | -0.0864
RRIRARPPRLPRPRPRPVWSPRP | 0.197

Sequence | shrunken log2 fold change
RRIRWRPPRLPRPRPRPHGMPRP | 0.0365
RRIRGRPPRLPRPRPRPLYCPRP | -0.0212
RRIRPRPPRLPRPRPRPRKEPRP | -0.157
RRIRVRPPRLPRPRPRPYRTPRP | -0.19
RRIRNRPPRLPRPRPRPVWWPRP | 0.259
RRIRTRPPRLPRPRPRPNFIPRP | -0.457
RRIRRRPPRLPRPRPRPAYTPRP | -0.0735
RRIRCRPPRLPRPRPRPMPHPRP | -0.0714
RRIRCRPPRLPRPRPRPINTPRP | -0.329
RRIRRRPPRLPRPRPRPKLMPRP | 0.178
RRIRRRPPRLPRPRPRPMDMPRP | 0.0833
RRIRARPPRLPRPRPRPSTTPRP | 0.363
RRIRSRPPRLPRPRPRPKWLPRP | 0.104
RRIRARPPRLPRPRPRPPQHPRP | 0.655
RRIRHRPPRLPRPRPRPADAPRP | -0.0349
RRIRVRPPRLPRPRPRPAIKPRP | -0.202
RRIRWRPPRLPRPRPRPVGSPRP | 0.445
RRIRKRPPRLPRPRPRPIAWPRP | 0.155
RRIRGRPPRLPRPRPRPQIWPRP | 0.293
RRIRFRPPRLPRPRPRPICQPRP | -0.182
RRIRTRPPRLPRPRPRPFFYPRP | -0.345
RRIRFRPPRLPRPRPRPQKFPRP | -0.259
RRIRERPPRLPRPRPRPSQKPRP | 0.0497
RRIRFRPPRLPRPRPRPPFGPRP | -0.00994
RRIRIRPPRLPRPRPRPRLWPRP | 0.0665

Sequence | shrunken log2 fold change
RRIRKRPPRLPRPRPRPTSWPRP | 0.6
RRIRKRPPRLPRPRPRPSKFPRP | -0.16
RRIRPRPPRLPRPRPRPQYCPRP | -0.106
RRIRDRPPRLPRPRPRPEFCPRP | 1.14
RRIRARPPRLPRPRPRPMNNPRP | -0.186
RRIRNRPPRLPRPRPRPAYTPRP | -0.262
RRIRWRPPRLPRPRPRPICLPRP | 0.0313
RRIRQRPPRLPRPRPRPKDQPRP | 0.0983
RRIRMRPPRLPRPRPRPAMIPRP | -0.0626
RRIRWRPPRLPRPRPRPEFGPRP | 0.393
RRIRKRPPRLPRPRPRPFMFPRP | -0.0278
RRIRERPPRLPRPRPRPYQAPRP | 0.019
RRIRPRPPRLPRPRPRPTDFPRP | -0.193
RRIRGRPPRLPRPRPRPEAYPRP | 0.0504
RRIRARPPRLPRPRPRPNGEPRP | 0.189
RRIRPRPPRLPRPRPRPPWDPRP | 0.312
RRIRIRPPRLPRPRPRPNMGPRP | -0.563
RRIRKRPPRLPRPRPRPKHPPRP | 0.068
RRIRDRPPRLPRPRPRPVKKPRP | -0.0221
RRIRKRPPRLPRPRPRPIPPPRP | 0.385
RRIRWRPPRLPRPRPRPGWNPRP | 0.238
RRIRTRPPRLPRPRPRPITHPRP | -0.0526
RRIRHRPPRLPRPRPRPQPCPRP | 0.0971
RRIRLRPPRLPRPRPRPGQKPRP | -0.00989
RRIRGRPPRLPRPRPRPCCQPRP | 0.181

Sequence | shrunken log2 fold change
RRIRMRPPRLPRPRPRPENIPRP | 0.0472
RRIRARPPRLPRPRPRPQVQPRP | 0.0275
RRIRHRPPRLPRPRPRPPCMPRP | -0.245
RRIRDRPPRLPRPRPRPMDSPRP | -0.0175
RRIRMRPPRLPRPRPRPQAIPRP | -0.00149
RRIRYRPPRLPRPRPRPFLCPRP | -1.19
RRIRYRPPRLPRPRPRPDNLPRP | -0.196
RRIRMRPPRLPRPRPRPKINPRP | -0.194
RRIRDRPPRLPRPRPRPCQFPRP | 0.0215
RRIRKRPPRLPRPRPRPACYPRP | 0.13
RRIRTRPPRLPRPRPRPYPYPRP | -0.0787
RRIRRRPPRLPRPRPRPVTQPRP | 0.197
RRIRYRPPRLPRPRPRPCYDPRP | -0.379
RRIRWRPPRLPRPRPRPLRTPRP | 1.39
RRIRKRPPRLPRPRPRPAPYPRP | 0.212
RRIRSRPPRLPRPRPRPLRAPRP | 0.858
RRIRGRPPRLPRPRPRPFMEPRP | -0.114
RRIRWRPPRLPRPRPRPKTAPRP | 0.203
RRIRSRPPRLPRPRPRPRNVPRP | 0.0864
RRIRYRPPRLPRPRPRPNTYPRP | -0.988
RRIRTRPPRLPRPRPRPAEDPRP | 0.17
RRIRGRPPRLPRPRPRPWWAPRP | 0.193
RRIRHRPPRLPRPRPRPMDMPRP | 0.0881
RRIRMRPPRLPRPRPRPKIQPRP | 0.158
RRIRERPPRLPRPRPRPTIAPRP | -0.25

Sequence | shrunken log2 fold change
RRIRGRPPRLPRPRPRPWCYPRP | 0.0576
RRIRPRPPRLPRPRPRPQCFPRP | 0.185
RRIRWRPPRLPRPRPRPWSDPRP | -0.289
RRIRPRPPRLPRPRPRPYLDPRP | -0.908
RRIRFRPPRLPRPRPRPIFSPRP | -0.341
RRIRCRPPRLPRPRPRPGVIPRP | -0.0294
RRIRTRPPRLPRPRPRPKPMPRP | 0.0287
RRIRQRPPRLPRPRPRPKHQPRP | -0.386
RRIRPRPPRLPRPRPRPVFNPRP | -0.344
RRIRVRPPRLPRPRPRPSCIPRP | -0.423
RRIRTRPPRLPRPRPRPDHNPRP | -0.471
RRIRCRPPRLPRPRPRPIGVPRP | 0.0129
RRIRDRPPRLPRPRPRPEASPRP | 0.447
RRIRSRPPRLPRPRPRPFNYPRP | 0.0477
RRIRKRPPRLPRPRPRPNQCPRP | 0.0387
RRIRYRPPRLPRPRPRPAVIPRP | -0.0517
RRIRFRPPRLPRPRPRPKLMPRP | 0.195
RRIRWRPPRLPRPRPRPFMEPRP | -0.239
RRIRLRPPRLPRPRPRPYSFPRP | -0.841
RRIRCRPPRLPRPRPRPHCKPRP | -0.348
RRIRARPPRLPRPRPRPNGFPRP | 0.113
RRIRGRPPRLPRPRPRPNAHPRP | 0.754
RRIRYRPPRLPRPRPRPWHRPRP | -0.172
RRIRMRPPRLPRPRPRPKHPPRP | 0.612
RRIRDRPPRLPRPRPRPVPTPRP | 0.247

Sequence | shrunken log2 fold change
RRIRPRPPRLPRPRPRPDCCPRP | -0.0125
RRIRLRPPRLPRPRPRPVTGPRP | -0.121
RRIRIRPPRLPRPRPRPRAYPRP | -0.315
RRIRWRPPRLPRPRPRPYYIPRP | -0.459
RRIRRRPPRLPRPRPRPRYEPRP | 0.0341
RRIRLRPPRLPRPRPRPETWPRP | 0.0117
RRIRERPPRLPRPRPRPRGPPRP | 0.662
RRIRQRPPRLPRPRPRPWPDPRP | -0.0854
RRIRYRPPRLPRPRPRPGVSPRP | 0.0695
RRIRVRPPRLPRPRPRPWVDPRP | 0.0379
RRIRPRPPRLPRPRPRPKKFPRP | 0.0281
RRIRYRPPRLPRPRPRPAYHPRP | -0.321
RRIRPRPPRLPRPRPRPTHFPRP | 0.442
RRIRTRPPRLPRPRPRPCWRPRP | 0.156
RRIRPRPPRLPRPRPRPIYPPRP | -0.269
RRIRSRPPRLPRPRPRPQTPPRP | 0.6
RRIRGRPPRLPRPRPRPTCGPRP | 0.915
RRIRLRPPRLPRPRPRPLNDPRP | -0.0903
RRIRDRPPRLPRPRPRPWMWPRP | 0.00708
RRIRGRPPRLPRPRPRPFVFPRP | 0.608
RRIRSRPPRLPRPRPRPQFCPRP | -0.16
RRIRARPPRLPRPRPRPNDRPRP | -0.0519
RRIRDRPPRLPRPRPRPKLEPRP | 0.434
RRIRSRPPRLPRPRPRPQAMPRP | 0.182
RRIRYRPPRLPRPRPRPKQRPRP | -0.106
